In paper PMC8242032, “Non-canonical function of DGCR8 in DNA double-strand break repair signaling and tumor radioresistance” (Nature Communications, 2021):

Target: T1, MBP-DGCR8 (human, UniProt Q8WYQ5 1-773)
T1 construct: DGCR8, human, full-length, in an MBP-tagged destination vector; also called purified DGCR8; source: bacterially purified (eluted with maltose)
T1 sequence (looked up): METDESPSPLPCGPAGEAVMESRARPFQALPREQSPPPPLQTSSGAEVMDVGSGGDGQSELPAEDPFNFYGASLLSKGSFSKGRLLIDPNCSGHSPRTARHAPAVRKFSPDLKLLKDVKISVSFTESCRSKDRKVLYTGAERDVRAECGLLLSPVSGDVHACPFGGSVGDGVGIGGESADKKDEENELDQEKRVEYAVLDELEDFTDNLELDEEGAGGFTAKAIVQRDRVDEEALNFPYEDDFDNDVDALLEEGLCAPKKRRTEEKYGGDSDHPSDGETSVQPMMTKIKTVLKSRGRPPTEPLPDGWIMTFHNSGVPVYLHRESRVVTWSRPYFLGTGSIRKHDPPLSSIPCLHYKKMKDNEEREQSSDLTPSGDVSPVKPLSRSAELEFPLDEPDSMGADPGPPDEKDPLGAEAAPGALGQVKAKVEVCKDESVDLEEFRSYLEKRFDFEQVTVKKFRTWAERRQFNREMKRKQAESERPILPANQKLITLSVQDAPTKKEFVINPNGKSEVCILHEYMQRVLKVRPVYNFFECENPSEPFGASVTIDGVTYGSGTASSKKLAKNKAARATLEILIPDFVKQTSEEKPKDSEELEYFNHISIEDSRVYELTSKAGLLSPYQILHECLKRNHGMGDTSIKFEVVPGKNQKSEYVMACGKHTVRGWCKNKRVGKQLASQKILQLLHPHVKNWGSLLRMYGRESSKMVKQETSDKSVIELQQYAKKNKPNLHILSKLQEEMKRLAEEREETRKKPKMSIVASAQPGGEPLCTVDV
Assay: pull-down; SFB-USP51 (or SFB-GFP) purified from transfected HEK293T cells, retained on S-protein beads and incubated with purified MBP-DGCR8, 4 °C overnight; washed with NETN buffer
Conditions: both partners purified

B1: SFB-USP51 (enzyme, human, UniProt Q70EK9 1-711, looked up)
chain: MAQVRETSLPSGSGVRWISGGGGGASPEEAVEKAGKMEEAAAGATKASSRREAEEMKLEPLQEREPAPEENLTWSSSGGDEKVLPSIPLRCHSSSSPVCPRRKPRPRPQPRARSRSQPGLSAPPPPPARPPPPPPPPPPPAPRPRAWRGSRRRSRPGSRPQTRRSCSGDLDGSGDPGGLGDWLLEVEFGQGPTGCSHVESFKVGKNWQKNLRLIYQRFVWSGTPETRKRKAKSCICHVCSTHMNRLHSCLSCVFFGCFTEKHIHKHAETKQHHLAVDLYHGVIYCFMCKDYVYDKDIEQIAKETKEKILRLLTSTSTDVSHQQFMTSGFEDKQSTCETKEQEPKLVKPKKKRRKKSVYTVGLRGLINLGNTCFMNCIVQALTHIPLLKDFFLSDKHKCIMTSPSLCLVCEMSSLFHAMYSGSRTPHIPYKLLHLIWIHAEHLAGYRQQDAHEFLIAILDVLHRHSKDDSGGQEANNPNCCNCIIDQIFTGGLQSDVTCQACHSVSTTIDPCWDISLDLPGSCATFDSQNPERADSTVSRDDHIPGIPSLTDCLQWFTRPEHLGSSAKIKCNSCQSYQESTKQLTMKKLPIVACFHLKRFEHVGKQRRKINTFISFPLELDMTPFLASTKESRMKEGQPPTDCVPNENKYSLFAVINHHGTLESGHYTSFIRQQKDQWFSCDDAIITKATIEDLLYSEGYLLFYHKQGLEKD
notes: USP51, human DUB ORF in the pBabe-SFB vector; also called SFB-tagged USP51; source: HEK293T, transfected, in lysate; purified from transfected HEK293T cells
B1: binds.
